The text below walks through data of paper PMC2994917 (The Journal of neuroscience : the official journal of the …, 2010).

Experiment [1] concerns the target NSF S460E mutant (Chinese hamster, UniProt P18708 1-744, S460E). Kind of experiment: far-Western, overlay or dot blot.
Experiment [2] has as its target NSF T461E mutant (Chinese hamster, UniProt P18708 1-744, T461E). Kind of experiment: far-Western, overlay or dot blot.

Sequence of NSF S460E mutant (P18708 whole entry S460E): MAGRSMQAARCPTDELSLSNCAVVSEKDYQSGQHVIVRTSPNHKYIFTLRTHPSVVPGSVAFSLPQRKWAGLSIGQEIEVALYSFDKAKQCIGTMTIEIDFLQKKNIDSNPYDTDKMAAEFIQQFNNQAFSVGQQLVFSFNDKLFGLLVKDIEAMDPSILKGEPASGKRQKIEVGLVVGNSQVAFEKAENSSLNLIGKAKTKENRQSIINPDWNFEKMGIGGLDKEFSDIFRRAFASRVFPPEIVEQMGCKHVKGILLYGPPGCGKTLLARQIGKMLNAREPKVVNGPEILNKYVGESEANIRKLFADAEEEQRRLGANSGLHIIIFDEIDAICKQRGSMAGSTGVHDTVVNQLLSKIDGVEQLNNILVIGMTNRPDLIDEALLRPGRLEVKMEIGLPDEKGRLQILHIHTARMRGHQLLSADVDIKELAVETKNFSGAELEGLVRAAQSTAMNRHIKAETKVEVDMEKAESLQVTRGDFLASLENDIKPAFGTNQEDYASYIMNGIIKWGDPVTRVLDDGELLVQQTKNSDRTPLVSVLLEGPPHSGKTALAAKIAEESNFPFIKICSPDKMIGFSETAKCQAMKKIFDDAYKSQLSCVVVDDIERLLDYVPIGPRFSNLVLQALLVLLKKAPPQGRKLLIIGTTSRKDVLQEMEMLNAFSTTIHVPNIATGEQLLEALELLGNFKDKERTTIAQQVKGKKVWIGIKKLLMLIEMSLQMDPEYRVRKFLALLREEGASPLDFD
Sequence of NSF T461E mutant (P18708 whole entry T461E): as the sequence (P18708 whole entry S460E) above, with E460S, T461E counted along it

B1: human recombinant PKCε (Invitrogen) (enzyme, UniProt Q02156 1-737, looked up)
chain: MVVFNGLLKIKICEAVSLKPTAWSLRHAVGPRPQTFLLDPYIALNVDDSRIGQTATKQKTNSPAWHDEFVTDVCNGRKIELAVFHDAPIGYDDFVANCTIQFEELLQNGSRHFEDWIDLEPEGRVYVIIDLSGSSGEAPKDNEERVFRERMRPRKRQGAVRRRVHQVNGHKFMATYLRQPTYCSHCRDFIWGVIGKQGYQCQVCTCVVHKRCHELIITKCAGLKKQETPDQVGSQRFSVNMPHKFGIHNYKVPTFCDHCGSLLWGLLRQGLQCKVCKMNVHRRCETNVAPNCGVDARGIAKVLADLGVTPDKITNSGQRRKKLIAGAESPQPASGSSPSEEDRSKSAPTSPCDQEIKELENNIRKALSFDNRGEEHRAASSPDGQLMSPGENGEVRQGQAKRLGLDEFNFIKVLGKGSFGKVMLAELKGKDEVYAVKVLKKDVILQDDDVDCTMTEKRILALARKHPYLTQLYCCFQTKDRLFFVMEYVNGGDLMFQIQRSRKFDEPRSRFYAAEVTSALMFLHQHGVIYRDLKLDNILLDAEGHCKLADFGMCKEGILNGVTTTTFCGTPDYIAPEILQELEYGPSVDWWALGVLMYEMMAGQPPFEADNEDDLFESILHDDVLYPVWLSKEAVSILKAFMTKNPHKRLGCVASQNGEDAIKQHPFFKEIDWVLLEQKKIKPPFKPRIKTKRDVNNFDQDFTREEPVLTLVDEAIVKQINQEEFKGFSYFGEDLMP
B1: the binding result in experiment [1] and in experiment [2] was “binds” throughout.
